Data on 20 molecules can be found in patent US20230212285A1 (published 2023).

The target of experiment [1] is cynomolgus C-KIT on stably transfected CHO-K1 cells (cynomolgus monkey). As to the kind of experiment: cell-based or functional assay.
Experiment [2] deals with T1, cynomolgus monkey C-KIT-Fc protein (cynomolgus monkey).
T1 construct: also called cyno C-KIT-Fc; cyno C-KIT
As to the kind of experiment: direct ELISA, IgG at 1 µg/ml. (In general: ELISA stands for enzyme-linked immunosorbent assay.)

Experiment [3] deals with T1, cynomolgus monkey C-KIT-Fc protein. As to the kind of experiment: HTRF competition vs terbium-labelled h37M IgG1. (Time-resolved FRET reads energy transfer from a long-lived donor to a nearby acceptor.)
Experiment [4] shares this target. The experiment can be described thus: HTRF competition vs terbium-labelled h37M IgG1. This is another data set of the same source.

Read-outs that look alike come from different tables or passages of the source.

B1: MH1 IgG1-3M (antibody, V domains shown)
VH: QVQLVQSGAEVKKPGASVKVSCKASGYTFTDYYMNWVRQAPGQGLEWMGRIYPGSGNTYYAQKFQGRVTMTRDTSTSTVYMELSSLRSEDTAVYYCARGVYYYDYWGQGTLVTVSS
VL: DIQMTQSPSSLSASVGDRVTITCRASQGIRTNLAWFQQKPGKAPKSLIYAASSLQSGVPSRFSGSGSGTDFTLTISSLQPEDFATYYCQQYNSYPRTFGGGTKVEIK
On to B1, for which the “Cyno C-KIT CHO FabZAP IC50 (pM)” value in experiment [1] worked out at 14 pM.

B2: MH5-DI IgG1-3M (antibody, V domains shown)
VH: QVQLVQSGAEVKKPGASVKVSCKASGYTFTDYYMNWVRQAPGQGLEWMGRIYPGSGNTYYAQKFQGRVTMTRDTSTSTVYMELSSLRSEDTAVYYCARGVYYYDYWGQGTLVTVSS
VL: DIQMTQSPSSLSASVGDRVTITCRASQGIRTNLAWFQQKPGKAPKSLIYAASSLQSGVPSRFSGSGSGTDFTLTISSLQPEDFATYYCQQYANYPRTFGGGTKVEIK
As for B2, the “Cyno C-KIT CHO FabZAP IC50 (pM)” value in experiment [1] turned out to be 13.5 pM.

B3: MH5.22 (antibody, human IgG1, V domains shown)
VH: QVQLVQSGAEVKKPGASVKVSCKASGYTFTDFYMNWVRQAPGQGLEWMGRIYPASGNTYYAQKFQGRVTMTRDTSTSTVYMELSSLRSEDTAVYYCARGVWYYDYWGQGTLVTVSS
VL: DIQMTQSPSSLSASVGDRVTITCRASQGIRTNLAWFQQKPGKAPKSLIYAASSLQSGVPSRFSGSGSGTDFTLTISSLQPEDFATYYCQQYANYPRTFGGGTKVEIK
notes: graft frameworks; substitutions derived; human IgG1; also called C-KIT-MH5.22
With B3, the OD450 nm in experiment [2] was greater than 2 OD450 nm. For the same molecule, the half-maximal inhibitory concentration (IC50) (as a rule, the concentration at which inhibition is half-maximal) in experiment [3] was determined as 0.164 µg/mL.

B4: E-C7 (antibody, human IgG1, V domains shown)
VH: QVQLVQSGAEVKKPGASVKVSCKASGYTFTDYYMNWVRQAPGQGLEWMGRIYPGSGNTYYAQKFQGRVTMTRDTSTSTVYMELSSLRSEDTAVYYCARGVYYYDYWGQGTLVTVSS
VL: DIQMTQSPSSLSASVGDRVTITCRASQGIRTNLAWFQQKPGKAPKSLIYSASSLQSGVPSRFSGSGSGTDFTLTISSLQPEDFATYYCQQYNSYPRTFGGGTKVEIK
notes: human IgG1; also called C-KIT-E-C7
In turn, B4 had an OD450 nm in experiment [2] greater than 2 OD450 nm. Also, the IC50 in experiment [4] came out at 0.051 µg/mL.

B5: MH5.24 (antibody, human IgG1, V domains shown)
VH: QVQLVQSGAEVKKPGASVKVSCKASGYTFTDFYMNWVRQAPGQGLEWMGRIYPASGNTYYAQKFQGRVTMTRDTSTSTVYMELSSLRSEDTAVYYCARGVWYFDTWGQGTLVTVSS
VL: DIQMTQSPSSLSASVGDRVTITCRASQGIRTNLAWFQQKPGKAPKSLIYAASSLQSGVPSRFSGSGSGTDFTLTISSLQPEDFATYYCQQYANYPRTFGGGTKVEIK
notes: graft frameworks; substitutions derived; human IgG1; also called C-KIT-MH5.24
As to B5, the IC50 in experiment [3] stood at 2.74 µg/mL.

B6: D-A10 (antibody, human IgG1, V domains shown)
VH: QVQLVQSGAEVKKPGASVKVSCKASGYTFTDYYMNWVRQAPGQGLEWMGRIYPGSGNTYYAQKFQGRVTMTRDTSTSTVYMELSSLRSEDTAVYYCARGVYYFDTWGQGTLVTVSS
VL: DIQMTQSPSSLSASVGDRVTITCRASQGVRTNLAWFQQKPGKAPKSLIYAASSRQSGVPSRFSGSGSGTDFTLTISSLQPEDFATYYCQQYNSYPRTFGGGTKVEIK
notes: graft frameworks; substitutions derived; human IgG1; also called C-KIT-D-A10
Consider B6, for which the IC50 in experiment [4] is 0.059 µg/mL.

B7: MH5 IgG1 (antibody, V domains shown)
VH: QVQLVQSGAEVKKPGASVKVSCKASGYTFTDYYMNWVRQAPGQGLEWMGRIYPGSGNTYYAQKFQGRVTMTRDTSTSTVYMELSSLRSEDTAVYYCARGVYYYDYWGQGTLVTVSS
VL: DIQMTQSPSSLSASVGDRVTITCRASQGIRTNLAWFQQKPGKAPKSLIYSASSLQSGVPSRFSGSGSGTDFTLTISSLQPEDFATYYCQQYANYPRTFGGGTKVEIK
notes: human IgG1; also called C-KIT-MH5
For B7, the OD450 nm in experiment [2] is greater than 2 OD450 nm. In addition, the half-inhibitory concentration (IC50) turned out to be 0.036 µg/mL in experiment [4] and 0.058 µg/mL in experiment [3].

B8: C-B12 (antibody, human IgG1, V domains shown)
VH: QVQLVQSGAEVKKPGASVKVSCKASGYTFTDYYMNWVRQAPGQGLEWMGRIYPGSGNTYYAQKFQGRVTMTRDTSTSTVYMELSSLRSEDTAVYYCARGVYEFDYWGQGTLVTVSS
VL: DIQMTQSPSSLSASVGDRVTITCRASQGVRNNLAWFQQKPGKAPKSLIYAASYRQSGVPSRFSGSGSGTDFTLTISSLQPEDFATYYCQQYNSYPRTFGGGTKVEIK
notes: graft frameworks; substitutions derived; human IgG1; also called C-KIT-C-B12
As to B8, the 50% inhibitory concentration (IC50) in experiment [4] stood at 0.166 µg/mL.

B9: MH5.34 (antibody, human IgG1, V domains shown)
VH: QVQLVQSGAEVKKPGASVKVSCKASGYTFTNYYMNWVRQAPGQGLEWMGRIYPASGNTYYAQKFQGRVTMTRDTSTSTVYMELSSLRSEDTAVYYCARGVWYFDSWGQGTLVTVSS
VL: DIQMTQSPSSLSASVGDRVTITCRASQGIRTNLAWFQQKPGKAPKSLIYAASSLQSGVPSRFSGSGSGTDFTLTISSLQPEDFATYYCQQYANYPRTFGGGTKVEIK
notes: graft frameworks; substitutions derived; human IgG1; also called C-KIT-MH5.34
In experiment [3], B9 gave an IC50 of 0.532 µg/mL.

B10: E-E10 (antibody, human IgG1, V domains shown)
VH: QVQLVQSGAEVKKPGASVKVSCKASGYTFTDYYMNWVRQAPGQGLEWMGRIYPGSGNTYYAQKFQGRVTMTRDTSTSTVYMELSSLRSEDTAVYYCARGVWYFDYWGQGTLVTVSS
VL: DIQMTQSPSSLSASVGDRVTITCRASQGVRTNVAWFQQKPGKAPKSLIYSASSLQSGVPSRFSGSGSGTDFTLTISSLQPEDFATYYCQQYNSYPRTFGGGTKVEIK
notes: graft frameworks; substitutions derived; human IgG1; also called C-KIT-E-E10
B10 yielded an IC50 in experiment [4] of 0.097 µg/mL.

B11: MH5.1 (antibody, human IgG1, V domains shown)
VH: QVQLVQSGAEVKKPGASVKVSCKASGYTFTNYYMNWVRQAPGQGLEWMGRIYPGTGNTYYAQKFQGRVTMTRDTSTSTVYMELSSLRSEDTAVYYCARGVWYYDYWGQGTLVTVSS
VL: DIQMTQSPSSLSASVGDRVTITCRASQGIRTNLAWFQQKPGKAPKSLIYAASSLQSGVPSRFSGSGSGTDFTLTISSLQPEDFATYYCQQYANYPRTFGGGTKVEIK
notes: graft frameworks; substitutions derived; human IgG1; also called C-KIT-MH5.1
For the molecule B11, the IC50 in experiment [3] is 0.633 µg/mL.

B12: E-C2 (antibody, human IgG1, V domains shown)
VH: QVQLVQSGAEVKKPGASVKVSCKASGYTFTDYYMNWVRQAPGQGLEWMGRIYPGSGNTYYAQKFQGRVTMTRDTSTSTVYMELSSLRSEDTAVYYCARGVYYLDYWGQGTLVTVSS
VL: DIQMTQSPSSLSASVGDRVTITCRASQGIRTNVAWLQQKPGKAPKSLIYSASYRQSGVPSRFSGSGSGTDFTLTISSLQPEDFATYYCQQYNSYPRTFGGGTKVEIK
notes: human IgG1; also called C-KIT-E-C2
Take B12: in experiment [2], the OD450 nm was greater than 2 OD450 nm.

B13: MH11 (antibody, human IgG1, V domains shown)
VH: QVQLVQSGAEVKKPGASVKVSCKASGYTFTDYYMNWVRQAPGQGLEWMGRIYPGSGNTYYAQKFQGRVTMTRDTSTSTVYMELSSLRSEDTAVYYCARGVYYYDYWGQGTLVTVSS
VL: DIQMTQSPSSLSASVGDRVTITCRASQGIRTNLAWFQQKPGKAPKSLIYAASSLQSGVPSRFSGSGSGTDFTLTISSLQPEDFATYYCQQYNAYPRTFGGGTKVEIK
notes: graft frameworks; substitutions derived; human IgG1; also called C-KIT-MH11
For B13, the IC50 in experiment [4] was 0.101 µg/mL.

B14: MH1 IgG1 (antibody, V domains shown)
VH: QVQLVQSGAEVKKPGASVKVSCKASGYTFTDYYMNWVRQAPGQGLEWMGRIYPGSGNTYYAQKFQGRVTMTRDTSTSTVYMELSSLRSEDTAVYYCARGVYYYDYWGQGTLVTVSS
VL: DIQMTQSPSSLSASVGDRVTITCRASQGIRTNLAWFQQKPGKAPKSLIYAASSLQSGVPSRFSGSGSGTDFTLTISSLQPEDFATYYCQQYNSYPRTFGGGTKVEIK
notes: human IgG1; also called IgG1-MH1; C-KIT-MH1
Consider B14, for which the OD450 nm in experiment [2] was greater than 2 OD450 nm.

B15: F-F2 (antibody, human IgG1, V domains shown)
VH: QVQLVQSGAEVKKPGASVKVSCKASGYTFTDYYMNWVRQAPGQGLEWMGRIYPGSGNTYYAQKFQGRVTMTRDTSTSTVYMELSSLRSEDTAVYYCARGVYYQDYWGQGTLVTVSS
VL: DIQMTQSPSSLSASVGDRVTITCRASQGVRTNVAWFQQKPGKAPKSLIYAASSRQSGVPSRFSGSGSGTDFTLTISSLQPEDFATYYCQQYNSYPRTFGGGTKVEIK
notes: graft frameworks; substitutions derived; human IgG1; also called C-KIT-F-F2
In experiment [4], B15 displayed an IC50 of 0.121 µg/mL.

B16: C-A7 (antibody, human IgG1, V domains shown)
VH: QVQLVQSGAEVKKPGASVKVSCKASGYTFTDYYMNWVRQAPGQGLEWIGRIYPGSGNTYYAQKFQGRVTMTRDTSTSTVYMELSSLRSEDTAVYYCARGVYYFDSWGQGTLVTVSS
VL: DIQMTQSPSSLSASVGDRVTITCRASQGVRNNVAWFQQKPGKAPKSLIYYASSLQSGVPSRFSGSGSGTDFTLTISSLQPEDFATYYCQQYNSYPRTFGGGTKVEIK
notes: graft frameworks; substitutions derived; human IgG1; also called C-KIT-C-A7
On to B16, for which the IC50 in experiment [4] amounted to 0.081 µg/mL.

B17: MH5.2 (antibody, human IgG1, V domains shown)
VH: QVQLVQSGAEVKKPGASVKVSCKASGYTFTDFYMNWVRQAPGQGLEWMGRIYPGTGNTYYAQKFQGRVTMTRDTSTSTVYMELSSLRSEDTAVYYCARGVWYYDYWGQGTLVTVSS
VL: DIQMTQSPSSLSASVGDRVTITCRASQGIRTNLAWFQQKPGKAPKSLIYAASSLQSGVPSRFSGSGSGTDFTLTISSLQPEDFATYYCQQYANYPRTFGGGTKVEIK
notes: graft frameworks; substitutions derived; human IgG1; also called C-KIT-MH5.2
In experiment [3], B17 gave an IC50 of 0.254 µg/mL.

B18: MH5.35 (antibody, human IgG1, V domains shown)
VH: QVQLVQSGAEVKKPGASVKVSCKASGYTFTNYYMNWVRQAPGQGLEWMGRIYPASGNTYYAQKFQGRVTMTRDTSTSTVYMELSSLRSEDTAVYYCARGVWYFDTWGQGTLVTVSS
VL: DIQMTQSPSSLSASVGDRVTITCRASQGIRTNLAWFQQKPGKAPKSLIYAASSLQSGVPSRFSGSGSGTDFTLTISSLQPEDFATYYCQQYANYPRTFGGGTKVEIK
notes: graft frameworks; substitutions derived; human IgG1; also called C-KIT-MH5.35
Turning to B18, the IC50 in experiment [3] is 0.785 µg/mL.

B19: MH5.23 (antibody, human IgG1, V domains shown)
VH: QVQLVQSGAEVKKPGASVKVSCKASGYTFTDFYMNWVRQAPGQGLEWMGRIYPASGNTYYAQKFQGRVTMTRDTSTSTVYMELSSLRSEDTAVYYCARGVWYFDSWGQGTLVTVSS
VL: DIQMTQSPSSLSASVGDRVTITCRASQGIRTNLAWFQQKPGKAPKSLIYAASSLQSGVPSRFSGSGSGTDFTLTISSLQPEDFATYYCQQYANYPRTFGGGTKVEIK
notes: graft frameworks; substitutions derived; human IgG1; also called C-KIT-MH5.23
As for B19, in experiment [3], the IC50 is 3.26 µg/mL.

B20: F-C5 (antibody, human IgG1, V domains shown)
VH: QVQLVQSGAEVKKPGASVKVSCKASGYTFTDYYMNWVRQAPGQGLEWMGRIYPGSGNTYYAQKFQGRVTMTRDTSTSTVYMELSSLRSEDTAVYYCARGVYYFDEWGQGTLVTVSS
VL: DIQMTQSPSSLSASVGDRVTITCRASQGVRTNLAWFQQKPGKAPKSLIYAASSRQSGVPSRFSGSGSGTDFTLTISSLQPEDFATYYCQQYNSYPRTFGGGTKVEIK
notes: human IgG1; also called C-KIT-F-C5
B20: the IC50 in experiment [4] is 0.079 µg/mL.
